A short description of the data set: soluble fraction after stress (log2 fold change); higher = more stays soluble; pooled small domains, quantitative proteomics. The following applies: stress: 75 degC.
Consider “HMEEKNNIIVSYIEDKISELEKASMYVPNENKEKLIMAFKNRNEDIDVIKTRIDTIFNNSVAAYKENME”, for which the “soluble fraction (log2)” value was 0.557.
As for “HMEEKTMNLPPSAKLVYKILSYEGNLTQKEIINMTYLPERTVRHALELLLGKRLITRQAYLNDARQSVYG”, the “soluble fraction (log2)” value was -1.72.
For “HMEEKVEVPNLSGKTYQQAKALLESYGLVAAKGGEEESEEPVGKVSRWSSAGKSVKKGTTITVWISGGI”, the “soluble fraction (log2)” value is -0.298.
“HMEEKWKENYEKIKLFISINNRYPSVYSEDKEEGLIGSFMSNQKRRKNKLSKEKMALFEALPNWIWE”: the “soluble fraction (log2)” value is -2.53.
Take “HMEELNFYPNPAYKYINLDYVGLKEIYTVLGKKLLETYDTRINISNLNSGIYLIKFKNQALRFVK”: the “soluble fraction (log2)” value was determined as 0.0302.
The same measure for “HMEELVGFEEKVRSILTSPLSAKEIKEKTHIEIDTRKLSKMLSELSFIKTEKKNGKKIFRLVS”: -0.243; for “HMEEMADILKTRIDTLDLSTRTLNALTGANIRTVGGIARKKKEDLLELAGMGEKGIQEIKKVLGGFGITL”: -0.157.
As for “HMEEPEYELLRQAVLALPEKYRLPIHLYYYEEYSVREIAEILQRKESAVQTQLQRGREKIRRSLTEKGVS”, the “soluble fraction (log2)” value is -0.874.
Consider “HMEEPLIISIDSNGAVYLEVDSFKDQSIEMSSLREIIEKIILANPDIQVVVRGDSEVKYEKVMDLMSILQS”, for which the “soluble fraction (log2)” value was -1.58.
As for “HMEEQGLPLVIISDGKVLAQNLTLRSLDRAWLQDQLTQHGHSKPEQVFLLTVDERGAVYYVPKE”, the “soluble fraction (log2)” value was -0.556.
Consider “HMEEQQIQLIQMKMEKDHKYVGKKISELRIKNMLIVLIKRGDEDIIPRAEVKIKEGDILVLSAQSYEG”, for which the “soluble fraction (log2)” value is -0.424.
The same measure for “HMEETAFEKLSPLQKLRALGKPLTMINMRDGSQIAGSVQRSDDKFLYLDTGDGIAKLPVEEILRRTPM”: 0.149.
The value for “HMEETIVFGQQKAINALSSDAGLSSNELDSYLKKRYKRPLYQLSKSEGAELIQGFQDGSLSKASIMDYVS” was 0.19; that for “HMEEVIEVEGKITAVLPSTMFRAELENGHQVLAHISGKLRKHFIKITVGDIVKMEMSTQDLQKARIV” was -0.411; that for “HMEEVRFPLKKEILLWALKEAQVDEDEVFRKFTNLEKWINGEKHPTFKQIESLANYLKIPFGYMFLEKPPI” was -1.02.
On to “HMEEVVIPDLAGLTEEEATKVLMAKELKLKVSGSQHSDIEKGLIISQDPPAGEKGAKNSQVAVVTSSG”, for which the “soluble fraction (log2)” value was determined as 0.0827.
The same measure for “HMEFDFGAILSGNGGSELYSGYSAEQKAALVEAAKADGMDVEFGADGSTTFKDKDGSEVVQKADGTWTV”: 0.235; for “HMEFDVELTSFEEAKKLKVIKEVKDVTGLSLGEAKDLVMGAPKAIKTGVSKEEAEAIKTQIEAAGAVVTI”: 0.101.
The same measure for “HMEFDYIVKVPDVRNKKIEDAGKILIDLGLKYTTESDYITQDLKVIDQFPLPGTEVSKGSIIDIYLEEDFK”: -0.473; for “HMEFEKYKYHYIFDDVLGLRIVWDRGKEHFSYFVNEELAEKSRKSDKDALEVMFYLEHKRWPEEGELENY”: -1.67.
With “HMEFEYTVVVPETRGKTIGEAGRILLDLELKYTSESMNIREDSKVIDQFPSPGTEVSKGSIIDLYLDE”, the “soluble fraction (log2)” value was -0.137.
The same measure for “HMEFQISLAAARVNANMTQEDTARAMKVSKTTIVNWEKGKVIPGIPEVEMMSRLYGIPQDYIFLP”: -3.08.
Turning to “HMEFSYLEEIGHEKGDLIKGLQLIQQKEGYVSDDAVRAVAENFGMSPAEVEGVLTFYAQFKR”, the “soluble fraction (log2)” value is -0.162.
As to “HMEGFKSVYFLTTPSGAEISDRSVGDIISKTPSLVSAQEGTEFEFNLKGYQPSFYMINKRSPDRVFVELIP”, the “soluble fraction (log2)” value is -0.545.
The same measure for “HMEGLEKDDGGYYFEKDNGERARNEWVYVEYEGKGYWYYMTDYGYPLRSAITPDGYKVNSNGHWIDEGN”: -0.644.
Take “HMEGLESVVPDLRGKSLKSAAIAAGLSGFALSPEGSGIVYKQSPAPGGRYLKGTLIAVWLRT”: the “soluble fraction (log2)” value is -1.95.
Consider “HMEGMQATVTQITDEGITVRYVMNGQMVTRTLTSDEVAFVNRGQAVSDLAGAYRVGQTVWIY”, for which the “soluble fraction (log2)” value is -0.446.
Regarding “HMEGNAFASTGDPEADILDITAVHPMRRDAVEELLARSGAEWSLVEGMLRDGKITMAPWEGEEFFIRS”, the “soluble fraction (log2)” value was determined as 0.105.
Consider “HMEGNWGLWAKVPNRFAALTTDKDSALRRFKSKEDGEAWMASHGLKPERFDVLEIPADYKPA”, for which the “soluble fraction (log2)” value amounted to 0.435.
The same measure for “HMEGRHFRILYILLNNERVTAPELAEEFGVSVRTIYRDIDTMSAAGIPIYMQGGRKGGIYLLEGY”: -1.11; for “HMEGSRASMDGQVPGKTSYLEWLARQPAQRQDQVLGAERGRLFRAGEIDLADMFTDKGEWISLERLKQLS”: 0.309; for “HMEGVSNLIVSVTRVKVTVDLSQAKVYLSIFPSEQAAFYLNALQQNRFQLKHDLSQLLKNQLRRIPTLQF”: 0.296.
The same measure for “HMEHDYGLSGREREVLELMVQGLVKKEIADRLALSYHTVDNHLRSIYAKLQVHTRGGAVAKALSEHLVPP”: -0.0631.
The same measure for “HMEHGQWLSEAQGASLAADWLARRRGVLPLNARRHLSGLSDQIARQIEGGLSREAGLYTAHEMMESLDP”: -0.427.
“HMEHNDPEVERTMFQGLEALKLQLFEKAFGHFSLLIKLAPDYAEAWNKRATVLYLMGRFKESESDVMRTLE”: the “soluble fraction (log2)” value was 0.16.
For “HMEHQLLHMEKTIFEEIADDYPQLNHTKIRNVLAAFLFTNDDVFKRIADLSGGERGRVSLAKLMLSDA”, the “soluble fraction (log2)” value is -0.159.
For the sequence “HMEHTPYLTEREADVVRLLVSGLDTAQIAQRLGIKTATVTAHKKHIFLKIGVRNTTQLVAWALIR”, the “soluble fraction (log2)” value was -2.3.
“HMEIELHNLALNIKEFRKKNKLSQAELAEKLGVARTTIGYYERAEVEPNIYTLVQLSKLMNRSIDSLLGL”: the “soluble fraction (log2)” value is -2.64.
“HMEIFYGDDRVYTVSLHGQNNFPFRKKTSDFDYGFEDGTGDEEYLRVLDVTLSRLENEQFDLLFFQAGV”: the “soluble fraction (log2)” value was -0.068.
Regarding “HMEIFYSARAWAKLNDLVATRTYLQHLGAIAGRIGRSEGLSPDRIPDGRDGAVNGWPLWVWDRAYAEVS”, the “soluble fraction (log2)” value is -2.82.
As for “HMEIGLIRVDSRLIHGQVITKWLNYSKANVIVVVDDELSKDSFMSEIYKASAPNGIIVEILSIDDFMKNT”, the “soluble fraction (log2)” value was -0.0469.
The value for “HMEIHIGSLIKEKMEERGLSVSDFAHALHYERTNIYKIFKRSSIDVDLLLRISEVLAYDFLREVYL” was -2.4; that for “HMEINKLIELIGGYKALSEVLNVSKSAISNYKKRGSLPSYAIPIIVKELKSKGISIDLSEFT” was -0.837; that for “HMEISAIIGNNLQQLRKEQGLSLDQLALKTGVSKAVLSQLENGKANPTINTIWKIATALHVTYSALLEPP” was -1.15.
Take “HMEISEILNPPLVTAMAERYPEVDVSYYRDKYILYYESREHKITDHRRNFEKWLLVESQKEEN”: the “soluble fraction (log2)” value was -0.861.
Turning to “HMEISTENESFSNGLLEHPHYTRPPVWEDLKIPAVLMSGHHGKVAEWRKQQSEALTQERRPDLWEAFG”, the “soluble fraction (log2)” value is -0.14.
For the sequence “HMEITSSNELKKMISNLINSENKNNPISDSNIVEKLKENDFLVARRTVAKYRKLLGIKNVNQRKE”, the “soluble fraction (log2)” value is -0.359.
The value for “HMEIYELTDQEQRVLEFIGEGMTNREIAKNMFLAEKTVKNYVSSLLRKLGLERRTQAAAMAVRLSV” was -0.119.
The same measure for “HMEKAYVWTDTRTFDVQNYIGKKKSEVKNDQYGFEFLGEGDYVIDQLPRVGEQIEEGQKVKIMLGNQQEI”: 0.178; for “HMEKDKGTILKEARIKKGLTQEQLANNINYTRQYISKWENNISLPKDIQTLKKISNLLSIPLKELLPEDYL”: -0.442; for “HMEKEFLFNGGKVVMNYEADRIQIMHDTKPGQDVITLMKKNGFKWSPFNKAWQRQITANAIYTTKHLINQ”: -1.71.
The value for “HMEKGIVSNKTDKGYGFIRSSTGESIFVHINNVGKEAYEQLAKGSRVLFDYEVTDRGKRATKVMLEPSES” was -0.196.
With “HMEKGLQYRRTDRAIMNAFIKLVNQGSFEKLTVQEILDEALVSRNTFYAHYRDIYDLMDALSN”, the “soluble fraction (log2)” value was -1.52.
The value for “HMEKIDEDIMDVLKKKAEVSGISLGVLKSIYEKAVKQYKLGHEIGQVKEQYAMQKVNTHLLENK” was 0.461; that for “HMEKIDYLSIGHRLRAYRIASSLKAEDVAESLGISRAAVYRLEKGEIVKIETLDNLARLLNTSLSSLLG” was -3.37; that for “HMEKIKNLTVTEFNLIANKNPSGSYDRITREALLHIIHKLESSYEAHTDLERKLFYKFRKAKFNAL” was -2.87.
The value for “HMEKIYLISDAAKQVNVEAHVLRYWEEELDIPAKRNELGHRYYTQEDIETFRKVKELKAQGIQLKGIKNIL” was -0.225; that for “HMEKLLTTRQSQIFELAKRKGYWNIPREISITQLAQLTGSSKSTISVMLHAIESKIVDTFYDEI” was -3.05; that for “HMEKLNERLLYLRKNANLTQQQLADKLHISNKTISQWETGRTLPDIVMLVRLAEIYDMKLDELLNQ” was -1.1.
Take “HMEKMLENIDLKAAVEALPEREKKVILLRYYRGMTQDAAAKVMKVSQVQISRIEKRAIEILREKL”: the “soluble fraction (log2)” value was -2.54.
Take “HMEKNKERIAFLKKRLEMYYEAEEKILQGQSYTIGSRTLTRTSLANVQSKIKELESEISALETRGN”: the “soluble fraction (log2)” value was -1.5.
The value for “HMEKRIIMLEELKKQVYEANMELPRRGLITYTWGNVSGIDRESGNFVIKPSGVDYDKLKPEDMVVMDL” was 0.249; that for “HMEKRRQEIVELVKRESEISFAELKQHFPEVSEVTLRKDLKYLDSTLQIIRIHGGAKSLPAAI” was -0.965.
“HMEKTTTLFDETTNPGIIYIGKAMPTGSAISEAAAVWAIKTIDTTTDTEIKWADGVTTYTKVWNNRASYSY”: the “soluble fraction (log2)” value is -0.872.
For the sequence “HMEKVDAISQSILDVLKKNNGYLAVTDKSDPDEIYGLFQISKKTFKKAIGSLYRDRLISIEEEGIRLR”, the “soluble fraction (log2)” value was -0.496.
Consider “HMEKVTAPMPGVINSIVKNVGDTVKRGDVVLILEAMKMENEIVAPKEGKIASINVAKGASVNAGDVLFSI”, for which the “soluble fraction (log2)” value was 0.347.
Turning to “HMEKVTPEMIAEYNALAKKYNSNPEVVFKKKEIQRLKYIYSLMSEKQKETAEVFPNIPPPPPT”, the “soluble fraction (log2)” value was 0.162.
The same measure for “HMEKYNIIVDNEDNFRLDKIIALNMKDLSRTMIQEMINRGLVSVNGKITKASYKTKLNDQIEIMIED”: -0.599.
For the sequence “HMELAALKILNSPIGKIAIGTSENGLVKLDILTSGQTRAEFSDLPKAHKLALDAADQLAAYF”, the “soluble fraction (log2)” value was 0.147.
The value for “HMELADNFAKLILTARESKGWTQAQLGQRMAETINVIKSAESGKPPADSVIRKFEMILGIELM” was -2.06.
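Also: 20 min heating vs room temperature control held 20 min.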
